Reference: the nanobody polyreactivity screen of Harvey et al. (2022)

Experiment: yeast display, Sf9 membrane polyspecificity reagent, FACS + sequencing; frameworks hold sequencing errors
Outline: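 Synthetic nanobody libraries on Saccharomyces cerevisiae BJ5465 were galactose-induced for 36–48 hours, stained 1 hour at 4 °C with 10% biotinylated, detergent-solubilized Sf9 membrane reagent and enriched on streptavidin microbeads. FACS then separated cells into low and high (top ~1%) gates by anti-HA (expression) and streptavidin (reagent binding) fluorescence. Genes were colony-PCR amplified, MiSeq 2 × 250 sequenced and CDR-length filtered. A clone's polyreactivity label is that of its gate of origin.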

Sequence	polyreactivity (PSR sort gate)
QVQLVESGGGLVQAGGSLRLSCAASGFTFEDNTMGGYRQAPGKERELVAAITWGGVSTYYADSVKGRFTISRDNAKKTVYLQMNSLKPEDTAVYYCARDYDVYTVFLMDYWGQGTQVTVSS	low polyreactivity
QVQLVESGGGLVQAGGSLRISCAASGSIFNIYAMGWSRQAPGKERELVATITGIADSTYYADSVKGRFTISRDNAKNTVNFQMNSLKPEDTAVYYCAARRTRVTGRYSVYAFDYWGQGTQVTVSS	low polyreactivity
QVQLVESGGGLVQAGGSLRLSCAASGSIFPGYAMGWYRQAPGKERELVATITWSGGSTYYADSVKGRFTISRDNAKNTVYLQMNSLKPVDTAVYYCNADSNWYYQWNYYGLYDYWGQGTQVTVSS	low polyreactivity
QVQLVESGGGLVQAGGSLRLSCAASGSTFFSNAMGWSRQAPGKERELVAAISWSGGSTYYADSVKGRFTISRDNAKNTVYLQMNSLKPEDTAVYYCAASFWTDYYRYDYWGQGSQVTVSS	low polyreactivity
QVQLVESVGGLVQAGGSLRLSCAASGFTFSPNARGSYRQAPGKERELVAAIDWSGDRTYYADSVKGRFTISRDNAKNTVYLQMNILKPEDTAVYYCKVVRRSPGDYSYYYWGQGTQVTVSS	low polyreactivity
QVQLVESGGGLVQAGGSLRLSCAASGSIFSFYTMGWYRQAPGKERELVARIRSSGGDTYYADSVKGRFTISRDNAKNTVYLQMNSLKPEDTAVYYCARDGYHRDYDYWGQGTQVTVSS	low polyreactivity
QVQLVESGGGLVQAGGSLRLSCADSGRTFYGNAMGWYRQAPGKERELVAAISISGGSTYYADSVKGRFTISRDNAKNTVYIQMNSLKPEDTAVYYCNAQEYYYYPYVYDSDYWGQGTQVTVSS	low polyreactivity
QDQLVESGGGLVQAGGSLRLSCAASGSTFYNYAMAWYRQAPGKEREFVAAISSGGGITYYADSVKGRFTISRDNAKNTVFLQMISLIPEDTAVYYCNAKMISGISTADSRSRIYDYWGHGTQVTVSS	high polyreactivity
QVQLVESGAGLVQAGRSLRLSCASSGITIKRYAMGWYSQAPGKESELVAAINFGAGNTYYADSVKGRFTISRDNAKNPVYLQMNSLKPEDSAVYYCATTARHRYGEYYYWGLGTQVTVSS	high polyreactivity
QDQLEESGGGLLQARGSLRLSCAASGSIFTCNGRGWYRQAPGKERELVAAISNGASTNYADSVKGRFTISRDNAKNSVYLQMNSLKPEDTAVYYCAAKSTGRYDYWGQGTQGTVSS	low polyreactivity
QVQLVESGGGLVQAGGSLRLSCAASGSTFRYYAMGWYRQAPGKERELVAAITWGGGNTYYADSVKGRFTISRDNAKNTVYLQMNSLKPEDTAVYYCNKVQSHWLDSWGQGTQVTVSS	low polyreactivity
QDQLVESGGGLVQAGGSLRLSCAASVSIFGVNVMGWYRQAPGKERELVAAITSIGGRTYYADSVKGRFTISRDNAKITVYLQMNSLKPEETAVYYCNADYTGAEYDYWGQGTQVTVSS	low polyreactivity
QVQLVESGGGLVQAGGSLRLSCAASGSTFPGNAMGWYRQAPGKERELVAAITSTGTTYYADSVKGRFTISRDNAKNTVYLQMNSLKPEDSAVYYCNADRYPDPSTFDYWGQGTLVTVSS	low polyreactivity
QGQLVESGGGLVQAGGSLRLSCAASGRIFYRTAMGWSSQAPGQERELVAVISGSGGRTYYADSVKGRFTIARDNAKNTVYLQMNSLKPEDTAVYYCARRAAYYSYLYSHYPWSYYYWGPGTQVTVSS	high polyreactivity
QVQLVESGGGLVQAGGSLRLSCAASGRTFYIYTRGWYRQAPGKERELVAAISSSGDSTYYADSVKGRFTISRDNAKNTVYLQMNSLKPEDTAVYYCAAYPTYPDEYWGQGTQVTVSS	low polyreactivity
QVQLVESGGGLVQAGGSLRLSCAASGRIFKVNTMGWYRQAPGKERELVASIRGGGSTNYADSVKGRFTISRDNAKNTVYLQMNSLKPEDTAVYYCAAGTSKPTPIYGYWGQGTQVTVSS	low polyreactivity
QVQLVESGGGLFQAGGSLRLSCAASGGIFVDNAMGWYRQAPGKERELVAAISWSGGSTYYADSVKGRFTISRYHAKNTVYLQMNSLKPEDTAVYYCAKVYVEDEGYQWADYDYWGQGTQVTVSS	low polyreactivity
QVQLVESGGGLVQEGGSLRLSCAASGSTFRTYAMGWYRQAPGKERELVAAISGDTSTNYADSVKGRFTISRDNAKNTVYLQMNSLKPEDTAVYYCAAYWTTYATLWYDYWGQGTQVTVSS	low polyreactivity
QVQLLESGGGLVQAGGSLRLSCAASGYIILRNAMGWYRQAPGKERELVAAIRRTGGSTYYADSLKGRFTISRDNAKNTVYLLLNSLKPEDTAVYSCAKRSYTGFEYWGQGTQVTVSS	low polyreactivity
QVQLVESGGALVQAGGSLRLSCAASGRIFGVNAIGWYRQAPGKERELVADISSGGSTNYADSVKGRFTISRDNAKNTVYLQMNSLKPEDTAVYYCAARTLRAGYRASGVRRDYWGQGTQVTVSS	high polyreactivity
QVQLVESGGGLVQAGGSLRLSCAASGSTFGTNAMGWSRQAPGKERELVAAITYSGGSTYYADSVKGRFTISRDNAKNTVYVQLNSLKPEDTAVYYCAARGHSSKYLWSYEYYYWGQGTQVTVSS	low polyreactivity
